Values of other authors, collected in PMC7116363 (Biomaterials, 2020).

Assays:
L cells = conditions: in mice
[1] = not given; remark: listed apart in the source

CCC(=O)O [propionate]
effective concentration of propionate needed to exert an effect on L cells (L cells): 140 mmol/L

liraglutide
circulating levels after oral co-administration with SNAC: failed to provide circulating levels

semaglutide
half-life [1]: 165 h
